Measured values taken from the Immune Epitope Database (IEDB).

What follows are sequences tested against HLA-A*02:01 (assay: IEDB peptide-MHC binding, cellular MHC/competitive/fluorescence; ≥ and ≤ were set here for values at or beyond the usual limits of such assays). Conditions: source organism: Human herpesvirus 5 strain AD169.
In the case of VLCPKNMII, the IC50 is reported as 12 µM. YLESFCEDV showed an IC50 of 16 µM. Sequence LLQTGIHVRV has an IC50 of 5 µM. ILARNLVPMV showed an IC50 of 1 µM. Sequence RLLQTGIHV has an IC50 of 2 µM. Work on DIYRIFAEL yielded an IC50 of 12 µM. Work on SIYVYALPL yielded an IC50 of 5 µM. For MLNIPSINV, the IC50 was 2.5 µM. Work on NLLMNGQQI yielded an IC50 of 5 µM. ALFFFDIDL was tested, and the IC50 was 2 µM. GLSISGNLL gave an IC50 of 16 µM.
